In the DeepSol protein solubility set:

Assay: soluble on expression in E. coli; label from the status in PepcDB or PDB records

Row | Sequence | soluble on expression in E. coli
1 | MAIIKRSAATDNPNIEILSTPEQIDVLSAEALMEALQGDDLEQILRAIHQLEAADSVEFQQHQAALFTLLDRDTEQNPCSDAVFSLLAIRNNDEITTRLIPLLDSEAPYLRNQAIEILQHSPQQLERHIQDLLNHQDPDVRIFAIDIIGLLPHQSVPEWLMQVLQHEEHINVIGTAIDRVAQLSDPNFSTILGEVKQRFSHVPYLVFACDVAIKRLNT | not soluble
2 | MSLGLHACIDPIAVAHNLEVLRQRLGVGVDGPRIWATVKADAYGHGLHNVLPGLRAADGIAVRHLHEAHQCRRVGWSGPIMVYAGLTHEREAALLTLQQLHLVITDMTQLEWLPGKPLYSCAPWIWLRYIGATRLGGLDASEYRRAYARCRELQQHGALRGVGHLNHYANAASVGDLEREHADFEACIRGLPGPVSTCNSAAACVLPTMAARTDWVRPGLALYGVSPIPGRAGRDLGLRPAMTLRSTLCATQNLPAGASVGYGCTFVADQPMALGLVRCGYGDGYPHNPRASFPVQVDGVLTRTVGRISMDLMAVDLRPIPAAARGAPVVLWGSPQLPVEHIAHAAGTIAAELLTGLTARVPLMRADHAALLREGHHHHHH | soluble
3 | MTQDELYMKEAIKEAKKAEEKGEVPIGAVLVINGEIIARAHNLRETEQRSIAHAEMLVIDEACKALGTWRLEGATLYVTLEPCPMCAGAVVLSRVEKVVFGAFDPKGGCSGTLMNLLQEERFNHQAEVVSGVLEEECGGMLSAFFRELRKKKKAARKNLSEMGHHHHHHSH | not soluble
4 | MGSDKIHHHHHHMDPAPSLGCSLKDVKWSSVAVPLDLLVSTYRLPQIARLDNGECVEGLRENDYLLIHSCRQWTTITAHSLEEGHYVIGPKIEIPVHYAGQFKLLEQDRDIKEPVQYFNSVEEVAKAFPERVYVMEDITFNVKVASGECNEDTEVYNITLCTGDELTLMGQAEILYAKTFKEKSRLNTIFKKIGKLNSISKLGKGKMPCLICMNHRTNESISLPFQCKGRFSTRSPLELQMQEGEHTIRNIVEKTRLPVNVTVPSPPPRNPYDLHFIREGHRYKFVNIQTKTVVVCCVLRNNKILPMHFPLHLTVPKFSLPEHLVKGESWPETLVHHWLGICQEQFDIDEYSRAVRDVKTDWNEECK | not soluble
5 | MVVVMNPEQIYGVSNIKSHIPVMLDIEESNYDAWRELFLTHCLSFDVMGHIDGTLLPTNANDVNWQKRDGIVKLSLYGTLTPKQFQGSFVTSSTSRDIWLRIKNQFRNNKDARALRLDSELRTKDIGDMRVADYYRKMKKLADSLRNVDVPVTDRNLVMYVLNGLNPKFDNIINVIKHRQPFPSFDDAATMLQEEEDRLKRAIKPNPTHVDHSSSSTVLACSEAPPVTNFQRSGGNQMGYRGRGRGNNIFRGRGGRFSYYNMPTFNSWNRPPFYQNSYQMWNHPWGYPPYVNTNGGNGLGLLGPRPAY | soluble
6 | MIAITGASGQLGRLVIAQLLEKVPASDIVALVRDVNKVADLSAKGVQVKAADYNQPEALAFALQGVDKVLLISSSEVGQRAAQHRNVIEAAVKAGVKLVAYTSLLHADKSPLALAEEHRQTEALLKDSGLPHVLLRNGWYTENYAASIPAALEHGVFIGSAGEGKITSATREDFAAAAVAVLTQEGQAGKVYELAGDEPYTLVELAAEISKQSGKSIGYQNLSGAEFTAALVSAGLPDVFAQIIADSDVGASKGGLFDGGKHLSQLIGRPTTPLSAVVKATLK | soluble
7 | MGSDKIHHHHHHMQPDLLVFGGDLISGPIPLETLDLIYDLKSKYRTASVLGNNDQDIIDSYENKKLSLSNKAQEQIKWVTRLLNEKQILDLKDMPININVGKYFFCHAIADDNRTIFTQKTRISNIKQLFLEVISPFIICGHTHLQFKLKIGSQQIINAGSVGMPFSDKKGAQWLWIENNNFQFRRTLFDEDIAIKNMKNSDFPFVNQFIEEYVKNTVKVRTGYKILRRLEENNRLRK | not soluble
8 | MKSLGADLDKALGRLSGGLYIITAKKGDVSSAMLASWVNQASFKPLGFSIAVAKDRAIESLMQVGDRFVLNVLEEGNYQPLMRHFLKRFAPGADRFEGVKTQPAENGAPILGDALAYMECEVVSRMDCGDHWAVYSTVYAGRVSKSEALTAVHHRKVGNHYLEHHHHHH | not soluble
9 | MGSDKIHHHHHHMTAAVKTTPGFASRLVNGVLAIKPLANLAKHQARQMMIKRAERIGVPWTKEVKTLQARDWKADLTQIENSQLSYPDYYVTSFHAYETGNLSWQAAFEVEPAAYAVHSKVVEGAEEAQGDPMLRQSYHNILKSQIPNEPQDILDVGCSVGLSTFALQAVYSQAKIIGLDLSPYFLAVANYRAQQRQAKINWLHAQAESTGLPDASFDLVSIFLMCHELPQSATRQILAEMRRVLRPGGYLAIMDMNPKSEVYQKMPAYILTLLKSTEPYLDEYFALDIEQAFVEAGFQTPTITNNTHRHRTVIAQVSG | not soluble
10 | MPDEKDKHEGTWLQWPHEYTYGEEYKKEVEPIWVKMASALTEGEKVHIVAYDQEEKERINNLLTDEGLNMEKIDFFIAPTDDVWARDSGPIFVYDSNKNLKILDPAFNGWGKKTPYKNDAQIRKNVSKQSGIERVDWGKFVLEGGAIELDSNGTALLTRSAVTNKNRNPDLSEKEIEKYISDLGVSNFIWLDGVPNLDITDFHIDGFAKFHNKSTIVTMKEDDLAEWGLSNKDMDTLLDAKNASGQKYKYEYLPLSKEKVALENGKTLDYKGSYINYYIGNTVVLVPNYNDPNDKIANDTIQKLYPDRKVVGIDVRELYKNGGMIHCVTQQQPIALKMAGDPLEHHHHHH | soluble
11 | MSDKKDFENNYEKTEDAWPIGVELVEHEISTGIWVTTQWQLTGFALNPTEETPDVCLLQLHKDERTDYRFNLSSQQPKLFLVMDNVESGEKPAIQLLTASQSVAAQYMDGDNLVLSNDMPLAVQAWMEAFIGRHGELLEVRRKKRKGAGRANGN | not soluble
12 | MSLKNIEKELENLRTIFRSIGLIKFKPYFSYMGLFKDDTMFGLYKEKCLYLRKSDQYLQEIKDTIPIHFLSDHKISRQSKIFYLVPQHIIENISSYSHWITSSISEYQRLRSKIRTENQTKIRILLNMNINIERLLARVNINTVDEFKQVGETKAFVRLIQQGFEVNQLLLFKLYGALQHKYIYMLSLEEKKRLLEQADSALYDAGLRKRFTVEGHHHHHH | soluble
13 | MFPLFPNPQTRRTMSVLSEQVDGRPPQPPSGRRGKRWLRAIAAGALLAAGGGASTQPVAQQAPQSHARKVKVLIISMFAPEAQPWIDKLGLTQAVPVPGLSIDYPSVHCNASDVCQLTTGMGKANAASSVSALIHSGQFDLSRAYFLVAGIAGIDPSQGTLGTAAWARYLVDSDLAWEIDAREVPADWPNGFIGINTQGPGQKPPLNYKTEIFRVNEALLQKALALSKGAVLDDNATARAYRANYPSAPANQPPAVVQCDTAAGNTYWHGALLGQREAAWVKLLTDGQGTYCTTQQEDNATFEALTRGSKAGLLDLQRVAVLRTASNFDRPYPGQTPYDSLVGSNSGGFVPSLNNLYLAGGPLVNDIVTRWSVWKHGVPSPLEHHHHHH | not soluble
14 | GAMGSIQENLIFPMDNPKGIDGFTNLKEKDIATNENKLLRTITADKMIPAFLITPISSQIAGKVIAQVESDIFAHMGKAVLIPKGSKVIGYYSNNNKMGEYRLDIVWSRIITPHGINIMLTNAKGADIKGYNGLVGELIERNFQRYGVPLLLSTLTNGLLIGITSALNNRGNKEGATNFFGDYLLMQLMRQSGMGINQVVNQILRDKSKIAPIVVIREGSRVFISPNTDIFFPIPRENEVIAEFLK | soluble
15 | MALFRGMWSVLKALGRTGVEMCAGCGGRIPSSISLVCIPKCFSSMGSYPKKPMSSYLRFSTEQLPKFKAKHPDAKLSELVRKIAALWRELPEAEKKVYEADFKAEWKAYKEAVSKYKEQLTPSQLMGMEKEARQRRLKEKALVKRRELILLGKPKRPRSAYNIYVSESFQEAKDDSAQGKLKLVNEAWKNLSPEEKQAYIQLAKDDRIRTTYEMKSWEEQMAEVGRSDLIRRSVKRSGDISEH | soluble
16 | MSLTKSGLAHAAGVSTSVIDGLVKQGVFETVFLPAPPVVAEPDPDYVEPRLEGPQKQAASEIIEDVRKGGFHVSLIDGVTGSGKTEVYFEAVAETLRQGKQVLILLPEIALTAAFLERFQDRFGAKPAEWHSDLSPRMREKVWRQAVTGEIKVVAGARSALFLPFDNLGLIIVDEEHDPAYKQEDRVFYNARDMAVVRARIAEFPVVLVSATPSVESQVNGSSGRYNTIHLHTRFGDAAMPDLHLVDMRRHPPERGGFLSPVLLRGIGKTIEKGEQSLLFLNRRGYAPLTLCRVCGHRFQCPQCSSWLVEHRFRNQLQCHQCGHNEPTPDHCPECGTFDHLVACGPGVERIAEEVEKHFPEARTIVLSSDLMGVKRLRLELEAIVKGEADIVIGTQLVAKGHNFPLMTLVGIVDADLGLANGDPRAAERTFQLLSQVTGRAGRTGLKSHGLLQTYQPQHPVMQAIVSGDASAFYEREIVEREKAVLPPFGRLASIIVSADTRAEAETHARGLRAAAPQVTGIMLLGPAEAPLALIRGRHRFRLLVHGRRNSDMQSFLRTLLASGPKERGSVHVQLDIDPQSFLEGHHHHHH | not soluble
17 | MTRYLRLSGLEPFVLTPDIPFVNVGERTNVTGSARFRKLITNRDYAAALEVARDQVQNGAQILDVNMDEGLIDSKAAMVEFLNLIASEPDIARVPLMIDSSKWEVIEAGLKCVQGKPVVNSISLKEGEESFRRQAGLCLAYGAAVVVMAFDEEGQADSFARKTTICARAYRILVEEVGFPPEDIIFDPNVFAVATGIEEHDNYGVDFIEAARWIRANLPHAHVSGGVSNLSFSFRGNEPVREAMHAVFLYHAIRAGMDMGIVNAGQLAVYDQIDPDLREACEDVVLNRKPKQGGTATERLLALAER | not soluble
18 | MSLNKEQRRITAEELQAHFEESTLSVQMIAEKLNVTTEDVEKVLAMTAPLGIFSHQLQRFIHLVWDVRDVINDNIKGNGQTPEPYTYLKGEKEDYWFLR | not soluble
19 | LLQHAYNPINWYSWNDEAFKKAKEEDKPIFLSVGYSTCHWCHVMEKESFEDEEVAEIMNRNFVAIKVDKEERPDVDSVYMTVCQAMTGSGGWPMTIIMTPDKKPFFAGTYFPKYSRYNRPGVIDLLENVSEKWNTSRDILIKSGDEIIEAL | not soluble
20 | MVKRANTFAMRPLTADDEQVLRDLLDASAALWNEINYQRLMRYNDKDGFEDEDVWDADTGALEGKYKAVLGASTAQTVRRANTEAWRSFFRLKKQFHDESNTSVTEHPEPPGFRGNKDDGRVLKGVVRKDAYSVEWGDRSRLEMVVGEQLRDRHNSPKSRLRLEIVGDPNWSDYEDQGRLELWYDETDCTFRASQPVTVSDDARATPLANEKAALDIGANNLVACTTTTGQQYLYEGRELFQRFRETTREIARLQSKLPEGRYSSKRIRRLYRKRTRRRDHAQETLCRDLLEQLYGEGVDTVYIGGLTDVLETHWSAETNAKTHNFWAFKQFTERLAWTADEYGISVEVRSEAWTSQECPQCGSTDRTTRQQDTLTCPCGFEGHADVTASETFLERHTEKAVRPMARPVRFEWDDHEWSESPRSPARESPKEQRTDPSTVPRDGNVVSGDSLEHHHHHH | not soluble
